Data from paper PMC10411744 (PLOS Pathogens, 2023).
Residue numbers refer to the chain shown, from its start. Names may count otherwise.

B1: LAH31 with light chain position 92 reverted to germline (R92L) (antibody, V domains shown)
VH: QVQLEQSGAEVKKPGSSVKVSCKASGPMFSRSAFSWVRQAPGQGLEWMGRIIPTVDLKNYAQKFQGRVTFTADKSTATSYMELRSLKSEDTAVYYCARMGSGSSYYGMDVWGLGTTVTVSS
VL: DIVMTQSPLSLPVIPGEPASISCRSSQSLLQSNGNNYLDWYLQKPGQSPQLLIYLGSNRASGVPDRFSGSGSGTDFTLTISRVEAEDVGVYYCLQALQSSVLTFGGGTKLEIK
notes: IgG1
B2: LAH31 with light chain position 94 reverted to germline (Ser94 to Thr94) (antibody, V domains shown)
VH: B1 VH
VL: B1 VL with L97R, S99T
B3: LAH31 mouse IgG2c LALA mutant (antibody, V domains shown)
VH: B1 VH
VL: B1 VL with L97R
B4: LAH31 mouse IgG2c KA mutant (antibody, V domains shown)
VH: B1 VH
VL: B1 VL with L97R
B5: LAH31 mouse IgG2c LALA-PG mutant (antibody, V domains shown)
VH: B1 VH
VL: B1 VL with L97R
B6: LAH31 with light chain position 95 reverted to germline (Ser95 to Pro95) (antibody, V domains shown)
VH: B1 VH
VL: B1 VL with L97R, S100P

Key:
[1] = biological target: X31 (H3N2) trimeric full-length HA (prefusion stabilized HA) (influenza A virus X31 (H3N2), biotin (biotinylated for capture on streptavidin)); test: ELISA; details: both partners purified
HA of H1 A/Narita/1/2009 = HA of H1 A/Narita/1/2009 (influenza A virus A/Narita/1/2009 (H1)); test: ELISA; details: both partners purified

Binder | binding result [1] | binding result (HA of H1 A/Narita/1/2009)
B1 | binds | 
B2 | binds | binds
B3 | binds | 
B4 | binds | 
B5 | binds | 
B6 | binds | binds
